Data reported in patent US20250000989A1 (JIANGSU HENGRUI PHARMACEUTICALS, published 2025).

B1: ADC-22 (antibody, human IgG1, kappa, V domains shown)
VH: EVQLVQSGAEVKKPGASVKVSCKASGYTFTSYWMHWVRQAPGQRLEWMGMIHPNSGSTNYNEKFKGRVTITRDTSASTAYMELSSLRSEDTAVYYCARLKTGNSFDYWGQGTTVTVSS
VL: DIVLTQSPDSLAVSLGERATINCKSSQSLLNSGNQKNYLTWYQQKPGQPPKLLIYWASTRESGVPDRFSGSGSGTDFTLTISSLQAEDVAVYYCQNAYTYPFTFGQGTKLEIKR
modifications: Asn at position 297 (Eu numbering) carries the remodeled N297 glycan chain from OLS-4, conjugated to the PBD drug linker LD-11; average drug loading y=1.96
B2: ADC-20 (antibody, human IgG1, kappa, V domains shown)
VH: QVQLVQSGGGLVQPGRSLRLSCAASGFTFDDYAMHWVRQAPGKGLEWVSGISWNSGSIGYADSVKGRFTISRDNAKNSLYLQMNSLRAEDTALYYCAKEGLPGLDYWGQGTLVTVSS
VL: DIQMTQSPSSLSASIGDRATITCRASQHVGTYLNWYQQKPGKTPKLLISGAANLQSGVPSRFSGSGSGTDFTLTISSLQPEDFATYYCQQSYNTPPFSFGQGTKVEIKR
modifications: Asn at position 297 (Eu numbering) carries the remodeled N297 glycan chain from OLS-4, conjugated to the PBD drug linker LD-11; average drug loading y=1.98

What was measured:
human Claudin18.2 = human Claudin18.2 (human); test: cell-based or functional assay
HER3 = HER3 (UniProt P21860 20-1342, limits assumed); test: cell-based or functional assay

| Binder | EC50 (nM), in vitro killing (CTG cell viability) of cells highly expressing NUGC4-claudin18.2 (human Claudin18.2) [nM] | EC50 (nM), in vitro killing (CTG cell viability) of cells lowly expressing NUGC4-claudin18.2 (human Claudin18.2) [nM] | EC50 (nM), in vitro killing (CTG cell viability) of cells moderately expressing NUGC4-claudin18.2 (human Claudin18.2) [nM] | EC50 (nM), killing effect (CTG) on FaDu++ (HER3) [nM] | EC50 (nM), killing effect (CTG) on MCF7++++ (HER3) [nM] | EC50 (nM), killing effect (CTG) on SW620+++ (HER3) [nM] |
| --- | --- | --- | --- | --- | --- | --- |
| B1 | 2.1 | 11.7 | 9.8 | – | – | – |
| B2 | – | – | – | 39.9 | 114 | 29.3 |
